Assay results: publication PMC5663869 (2017)
Where no end group is shown, it is not given here.

How the values were obtained:
BAZ2B BRD = BAZ2B BRD (human, UniProt Q9UIF8 1-2168); test: ITC
BAZ2B PHD–BRD = BAZ2B PHD–BRD (human, UniProt Q9UIF8 1-2168); test: ITC
Sequence of BAZ2B PHD–BRD (Q9UIF8 whole entry): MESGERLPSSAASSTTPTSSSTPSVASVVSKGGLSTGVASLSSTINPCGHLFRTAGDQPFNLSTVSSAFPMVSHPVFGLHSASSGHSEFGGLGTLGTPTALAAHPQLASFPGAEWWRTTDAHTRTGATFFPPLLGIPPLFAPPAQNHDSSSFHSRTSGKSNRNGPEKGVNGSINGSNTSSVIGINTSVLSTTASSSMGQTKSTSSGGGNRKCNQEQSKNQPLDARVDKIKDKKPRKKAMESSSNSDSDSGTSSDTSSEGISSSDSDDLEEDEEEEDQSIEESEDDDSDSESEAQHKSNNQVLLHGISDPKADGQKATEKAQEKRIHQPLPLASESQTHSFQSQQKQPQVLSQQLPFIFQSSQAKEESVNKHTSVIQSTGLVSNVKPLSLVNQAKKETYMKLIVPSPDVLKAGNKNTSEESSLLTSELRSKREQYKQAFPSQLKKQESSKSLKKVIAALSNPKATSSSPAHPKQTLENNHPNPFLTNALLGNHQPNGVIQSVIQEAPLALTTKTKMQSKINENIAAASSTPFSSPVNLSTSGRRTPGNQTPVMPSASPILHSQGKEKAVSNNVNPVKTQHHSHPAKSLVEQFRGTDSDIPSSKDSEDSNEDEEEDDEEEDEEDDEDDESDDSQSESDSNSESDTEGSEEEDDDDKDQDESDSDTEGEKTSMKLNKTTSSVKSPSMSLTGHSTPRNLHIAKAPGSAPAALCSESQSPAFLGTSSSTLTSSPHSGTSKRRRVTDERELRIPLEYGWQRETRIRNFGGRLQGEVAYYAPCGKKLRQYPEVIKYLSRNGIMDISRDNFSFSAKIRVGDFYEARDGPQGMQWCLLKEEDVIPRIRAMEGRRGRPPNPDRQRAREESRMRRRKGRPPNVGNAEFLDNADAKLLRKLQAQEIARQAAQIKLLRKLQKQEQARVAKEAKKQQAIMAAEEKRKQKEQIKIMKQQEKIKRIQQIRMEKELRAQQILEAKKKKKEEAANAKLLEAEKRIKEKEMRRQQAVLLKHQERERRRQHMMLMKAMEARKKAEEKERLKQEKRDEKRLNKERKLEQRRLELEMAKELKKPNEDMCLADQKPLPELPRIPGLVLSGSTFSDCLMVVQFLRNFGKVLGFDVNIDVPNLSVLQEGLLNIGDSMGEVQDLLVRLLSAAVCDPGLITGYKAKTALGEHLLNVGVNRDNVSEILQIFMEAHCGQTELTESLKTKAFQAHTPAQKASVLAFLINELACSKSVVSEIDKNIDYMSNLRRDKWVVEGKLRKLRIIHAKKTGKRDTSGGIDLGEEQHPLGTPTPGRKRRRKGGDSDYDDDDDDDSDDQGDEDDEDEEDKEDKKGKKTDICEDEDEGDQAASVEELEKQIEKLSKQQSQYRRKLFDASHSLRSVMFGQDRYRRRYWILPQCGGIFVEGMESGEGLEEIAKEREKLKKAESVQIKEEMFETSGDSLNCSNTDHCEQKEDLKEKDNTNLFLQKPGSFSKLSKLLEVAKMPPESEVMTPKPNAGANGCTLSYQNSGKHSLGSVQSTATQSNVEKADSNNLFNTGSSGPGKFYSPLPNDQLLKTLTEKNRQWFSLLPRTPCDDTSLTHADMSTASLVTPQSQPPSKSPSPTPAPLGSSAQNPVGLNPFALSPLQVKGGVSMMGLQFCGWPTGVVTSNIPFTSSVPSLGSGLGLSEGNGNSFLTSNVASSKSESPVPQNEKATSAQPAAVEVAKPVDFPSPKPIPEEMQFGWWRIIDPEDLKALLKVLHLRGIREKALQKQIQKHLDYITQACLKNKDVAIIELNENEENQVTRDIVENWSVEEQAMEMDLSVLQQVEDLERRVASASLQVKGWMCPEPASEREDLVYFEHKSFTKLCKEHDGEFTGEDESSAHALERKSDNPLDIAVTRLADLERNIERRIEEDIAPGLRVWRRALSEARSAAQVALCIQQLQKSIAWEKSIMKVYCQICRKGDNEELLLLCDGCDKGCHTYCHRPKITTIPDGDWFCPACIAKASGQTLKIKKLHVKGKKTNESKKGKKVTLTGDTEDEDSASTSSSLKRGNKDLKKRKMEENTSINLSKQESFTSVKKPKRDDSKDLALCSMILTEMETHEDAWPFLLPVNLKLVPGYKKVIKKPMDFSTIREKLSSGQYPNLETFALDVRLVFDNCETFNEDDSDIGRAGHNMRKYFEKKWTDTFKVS

Sequence of BAZ2B BRD (Q9UIF8 whole entry): as above

- Kd (BAZ2B BRD): 8.2 µM
- Kd (BAZ2B PHD–BRD): 10 µM
Binder: TGGK(Ac)APRKQLA [histone H3(11–21aa)K14ac peptide]
